The record followed here is paper doi:10.1101/2022.10.19.512861.

In this experiment the target is MreB from Geobacillus stearothermophilus (MreB^Gs), wild type, His6-tagged (Geobacillus stearothermophilus ATCC 7953). The experiment in a line: negative stain electron microscopy of polymerization.

Substance “MreB from Geobacillus stearothermophilus (MreB^Gs), wild type, His6-tagged (natural protein)” showed a concentration of MreB above which polymers were observed of 0.55 µM.
